Patent publication US9005614B2, “PRLR-specific antibody and uses thereof” (Novartis AG, priority 2006, dated 2015)
Where two headings read alike, the source gives them in different places.

B1: he.06.642-1: HUMAN-ENGINEERED antibody from XHA.06.642; variable regions SEQ ID NO: 88 and SEQ ID NO: 89 by order of listing (antibody, V domains shown)
VH: EVQLVESGGGLVQPGGSLRLSCAVSGFTFSSYGMSWVRQAPGKRLEWVATVSSGGTYTYYPDSVKGRFTISRDNSKNTLYLQMNSLRAEDTAMYYCARHRGNYYATYYYAMDYWGQGTLVTVSS
VL: DIVLTQSPDSLAVSLGERATINCKASKSVSTSGYTYMHWYQQKPGQPPKLLIYLASNRESGVPDRFSGSGSGTDFTLTISPVQAEDVATYYCQHSGELPPSFGQGTKLEIK
B2: he.06.275-1: HUMAN-ENGINEERED antibody from XHA.06.275; variable regions SEQ ID NO: 91 and SEQ ID NO: 93 by order of listing (antibody, V domains shown)
VH: DVQLQESGPGLVKPSQTLSLTCTVTGYSITSDYAWNWIRQFPGKKLEWMGYISYSGSTSYNPSLKSRITISRDTSKNQFSLQLNSVTAADTATYFCARDYGYVFDYWGQGTTLTVSS
VL: DVQITQSPSSLSASPGDRITLTCRASKNIYKYLAWYQEKPGKTNNLLIYSGSTLHSGIPSRFSGSGSGTDFTLTISSLQPEDFAMYYCQQHNDYPYTFGQGTKLEIK
B3: he.06.275-3: HUMAN-ENGINEERED antibody from XHA.06.275; variable regions SEQ ID NO: 92 and SEQ ID NO: 93 by order of listing (antibody, V domains shown)
VH: DVQLQESGPGLVKPSQTLSLTCTVTGYSITSDYAWNWIRQFPGKKLEWMGYISYSGSTSYNPSLKSRITISRDTSKNQFSLQLNSVTAADTATYFCARDYGYVFDYWGQGTTLTVSS
VL: DVQITQSPSSLSASPGDRITLTCRASKNIYKYLAWYQEKPGKANKLLIYSGSTLHSGIPSRFSGSGSGTDFTLTISSLQPEDFAMYYCQQHNDYPYTFGQGTKLEIK
B4: he.06.275-2: HUMAN-ENGINEERED antibody from XHA.06.275; variable regions SEQ ID NO: 91 and SEQ ID NO: 94 by order of listing (antibody, V domains shown)
VH: QVQLQESGPGLVKPSQTLSLTCTVSGYSITSDYAWNWIRQFPGKGLEWMGYISYSGSTSYNPSLKSRITISRDTSKNQFSLQLNSVTAADTAVYFCARDYGYVFDYWGQGTTLTVSS
VL: DVQITQSPSSLSASPGDRITLTCRASKNIYKYLAWYQEKPGKTNNLLIYSGSTLHSGIPSRFSGSGSGTDFTLTISSLQPEDFAMYYCQQHNDYPYTFGQGTKLEIK

Tests used:
BaF3/PRLR cells = test: In vitro combination of anti-PRLR mAbs and chemotherapeutics, cell survival (CellTiter Glo); type: cell-based; settings: 5 days
Method: Cell survival was determined by CellTiter Glo analysis and is reported aS RLU (y-axis).
Due to the possibility that a potential anti-PRLR therapeutic antibody may be administered in conjunction with cytotoxic drug regimens in the clinic, the effects of such combination therapies on cell survival in culture was investigated. […] An array of clinically-relevant and mechanistically diverse cytotoxic agents were utilized in this assay: Doxorubicin (an anthracycline Topo II inhibitor), Taxol (a microtubule stabilizing agent), Fludarabine (an anti-metabolite), and Cisplatin (a platinum-based DNA cross-linking drug).

cynomolgus PRLR ECD = target: T1, cynomolgus PRLR ECD (Macaca fascicularis, UniProt A0A2K5WXK1); test: Biacore kinetic titration, antibody captured on Protein A/G; type: binding; settings: Table 9, Cyno PRLR ECD; unit not given
T1 construct: antibodies against human and cynomolgus PRLR ECD
T1 sequence (A0A2K5WXK1 25-234): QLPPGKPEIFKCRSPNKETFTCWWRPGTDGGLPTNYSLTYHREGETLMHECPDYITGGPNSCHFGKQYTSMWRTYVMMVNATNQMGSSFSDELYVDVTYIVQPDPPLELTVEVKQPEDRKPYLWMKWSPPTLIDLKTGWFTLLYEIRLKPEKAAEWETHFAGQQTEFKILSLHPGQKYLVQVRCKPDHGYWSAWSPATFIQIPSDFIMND
Method: (§1) Affinity of the chimerized and HUMAN ENGINEERED™ antibodies determined by Biacore analysis. Briefly, a CM5 sensor chip (Biacore) immobilized with Protein A/G (Pierce) via NHS/EDC was used to capture approximately 600 RU of antibody on the chip surface. Five concentrations of PRLR ECD beginning at 5 ug/mL (185 nM) and serially diluted at 5× dilution to 0.3 nM were injected from lowest to highest concentration in the kinetic titration injection mode, and 15 minutes of dissociation data was collected. The experiments were double-referenced, i.e. an adjacent flow cell response was subtracted automatically, and the response from a buffer injection experiment was subtracted from the experimental data set. Kinetic and derived parameters (ka, kd and KD) were determined by fitting to a 1:1 Langmuir model using BiaEval software customized to the kinetic titration injection mode. Affinity measurements of both chimeric and all HUMAN ENGINEERED™ antibodies against human and cynomolgus PRLR ECD are summarized in Table 9 and Table 10.

human PRLR ECD = target: T2, human PRLR ECD (Homo sapiens, UniProt P16471); test: as above; type: binding; settings: Table 9, Human PRLR ECD; unit not given
T2 construct: His6 (C); made in house; host or cells: Tn5 insect cells, baculovirus
T2 sequence (P16471 25-234): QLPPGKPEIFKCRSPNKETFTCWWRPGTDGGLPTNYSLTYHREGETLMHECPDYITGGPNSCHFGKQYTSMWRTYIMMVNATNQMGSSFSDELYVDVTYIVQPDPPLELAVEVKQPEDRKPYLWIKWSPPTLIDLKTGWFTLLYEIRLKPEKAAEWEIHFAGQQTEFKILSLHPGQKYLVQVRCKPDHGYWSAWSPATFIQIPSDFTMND
Method: as §1

[1] = test system: PRL-induced phospho-PRLR and phospho-Stat5; test: PRL-induced PRLR and STAT5 phosphorylation in T47D cells by Western blot; type: cell-based, human
Method: Cells were pre-treated with 1 ug/ml mAb prior to 30 min stimulation with 50 ng/ml PRL. Lysates were analyzed for the presence of phospho-PRLR using antibodies specific for phosphotyrosine residues 546 and 611 of the PRLR.
T47D cells were incubated with 1 or 10 ug/ml mAb, then treated with or without PRL (50 ng/ml) for an additional 30 min.
The ability of selected antibodies to inhibit PRL-induced phosphorylation of STAT5 and AKT was determined as follows. Cells were seeded overnight in 6 well plates at a density of 3×10^5 cells/ml in phenol red-free RPMI/10% FBS. The following day, media was replaced with serum-free RPMI for 30 min. In some experiments, anti-PRLR or non-specific control antibodies were incubated with cells during this serum starvation period. 50 ng/ml PRL was then added to wells for 30 min, after which cells were rinsed once in PBS and lysed in a buffer consisting of 50 mM Tris-HCl, pH7.5, 150 mM NaCl, 1 mM EDTA, 1% NP-40, 1 mM Na3OV4, 50 mM NaF, 0.25% deoxycholate and protease inhibitors. Tubes were spun down at 14,000 rpm in a refrigerated microfuge and lysates were quantitated using BCA reagents. 30 μg of whole cell lysate was separated by 10% SDS-PAGE and proteins were detected using phospho-specific antibodies for STAT5A/B (Y694/Y699, Upstate) or PRLR (Y546/Y611, in-house) and ECL. Equal protein loading was determined by staining with antibodies specific for total STAT5 (BD) or PRLR (Zymed) or AKT (Cell Signalling). Results of a representative assay of effect of a PRLR-specific antibody on PRLR intracellular phosphorylation are shown in FIG. 6.
Chimeric mAbs were analyzed for their ability to inhibit the proliferation and survival of BaF/PRLR cells [FIG. 11]. […] In order to assess the PRLR signal-neutralizing capability of the chimeric antibodies in a human breast cancer model, T47D cells were treated with 1 ug/ml mAb for 30 min prior to PRL stimulation. At the same time, additional cell samples were incubated with antibody alone to examine any potential agonism gained through chimerization of the antibody candidates.
Antibodies were assessed in target modulation and cell proliferation assays. FIG. 16 depicts the effect of 2 concentrations of chXHA.06.642 and HUMAN ENGINEERED™ antibodies he.06.642-1 and he.06.642-2, on PRL-induced Stat5 phosphorylation in T47D cells. […] Similar results were found for chXHA.06.275 variants.

[2] = Mus musculus, 120 h, co-administered anti-KLH control Ab 1 ug/ml, read-out: chemotherapeutic IC50 with KLH (1 ug/ml)
[3] = Mus musculus, 120 h, co-administered chXHA.06.275 1 ug/ml, read-out: chemotherapeutic IC50 with chXHA.06.275 (1 ug/ml)
[4] = Mus musculus, 120 h, co-administered chXHA.06.642 1 ug/ml, read-out: chemotherapeutic IC50 with chXHA.06.642 (1 ug/ml)

Row | Molecule | IC50 (BaF3/PRLR cells; [2]) | IC50 (BaF3/PRLR cells; [3]) | IC50 (BaF3/PRLR cells; [4]) | ka (cynomolgus PRLR ECD) | kd (cynomolgus PRLR ECD) | ka (human PRLR ECD) | kd (human PRLR ECD) | also measured
1 | N.N.[Cl][Pt][Cl] [Cisplatin] |  |  |  |  |  |  |  | IC50 (BaF3/PRLR cells; co-administered anti-KLH control Ab 1 ug/ml, read-out: chemotherapeutic IC50 with KLH (1 ug/ml)): 166 nM; IC50 (BaF3/PRLR cells; co-administered chXHA.06.275 1 ug/ml, read-out: chemotherapeutic IC50 with chXHA.06.275 (1 ug/ml)): 46.8 nM; IC50 (BaF3/PRLR cells; co-administered chXHA.06.642 1 ug/ml, read-out: chemotherapeutic IC50 with chXHA.06.642 (1 ug/ml)): 27.6 nM
2 | COc1cccc2c1C(=O)c1c(O)c3c(c(O)c1C2=O)C[C@@](O)(C(=O)CO)C[C@@H]3O[C@H]1C[C@H](N)[C@H](O)[C@H](C)O1 [Doxorubicin] | 6.44 nM | 2.56 nM | 2.14 nM |  |  |  |  | 
3 | Nc1nc(F)nc2c1ncn2[C@@H]1O[C@H](CO)[C@@H](O)[C@@H]1O [Fludarabine] | 105000 nM | 93800 nM | 40000 nM |  |  |  |  | 
4 | CC(=O)O[C@H]1C(=O)[C@@]2(C)[C@H]([C@H](OC(=O)c3ccccc3)[C@]3(O)C[C@H](OC(=O)[C@H](O)[C@@H](NC(=O)c4ccccc4)c4ccccc4)C(C)=C1C3(C)C)[C@]1(OC(C)=O)CO[C@@H]1C[C@@H]2O [Taxol] | 4.14 nM | 2.45 nM | 2.07 nM |  |  |  |  | 
5 | B1 |  |  |  | 1.2E+05 | 3.8E−03 | 1.7E+05 | 3.5E−04 | agonism: induction of PRLR signaling by antibody alone ([1]; T47D cells treated with mAb alone): neither antibody displayed any agonistic activity; block of PRL-induced signaling (phospho-PRLR, phospho-Stat5) ([1]; T47D cells, 1 or 10 ug/ml mAb, then PRL 50 ng/ml 30 min): complete p-Stat5 signal abrogation
6 | B2 |  |  |  | 3.6E+05 | 5.7E−04 | 6.2E+05 | 3.1E−04 | 
7 | B3 |  |  |  | 3.9E+05 | 5.0E−04 | 6.4E+05 | 2.7E−04 | 
8 | B4 |  |  |  | 3.7E+05 | 6.9E−04 | 6.0E+05 | 3.7E−04 | 
